Test: soluble on expression in E. coli; label from the status in PepcDB or PDB records

Sequence | soluble on expression in E. coli
SAIITTTTVRFTDGTSPTFFSSASTKAYNLHFLYSNSTQRLTNPKFGIGGKLKVTVNPYSYTEEVRPEERKSLTDFLTEAGDFVNSDGGDGGPPRWFSPLECGARAPESPLLLYLPGIDGTGLGLIRQHKRLGEIFDIWCLHFPVKDRTPARDIGKLIEKTVRSEHYRFPNRPIYIVGESIGASLALDVAASNPDIDLVLILANPVTRFTNLMLQPVLALLEILPDGVPGLITENFGFYQEMFETMLNENDAAQMGRGLLGDFFATSSNLPTLIRIFPKDTLLWKLQLLKSASASANSQMDTVNAQTLILLSGRDQWLMNKEDIERLRGALPRCEVRELENNGQFLFLEDGVDLVSIIKRAYYYRRGKSLDYISDYILPTPFEFKEYEESQRLLTAVTSPVFLSTLKNGAVVRSLAGIPSEGPVLYVGNHMLLGMELHAIALHFLKERNILLRGLAHPLMFTKKTGSKLPDMQLYDLFRIIGAVPVSGMNFYKLLRSKAHVALYPGGVREALHRKGEEYKLFWPEHSEFVRIASKFGAKIIPFGVVGEDDLCEMVLDYDDQMKIPFLKNLIEEITQDSVNLRNDEEGELGKQDLHLPGIVPKIPGRFYAYFGKPIDTEGREKELNNKEKAHEVYLQVKSEVERCMNYLKIKRETDPYRNILPRSLYYLTHGFSSQIPTFDLRNH | not soluble
MNSTHHYEQLIEIFNSCFADDFNTRLIKGDDEPIYLPADAEVPYNRIVFAHGFYASAIHEISHWCIAGKARREQVDFGYWYCPDGRDAQTQSQFEDVEVKPQALDWLFCVAAGYPFNVSCDNLEGDFEPDRVVFQRRVHAQVMDYLTNGIPERPARFIKALQNYYHTPELTAEQFPWPEALN | soluble
MDSENSSSHSISSPQMFQNTHNNSAMEDNLLSRPMNNESLQMIIGYLRRNGLTETEELLTREAGPVLRVEGSNGLPPEEAISVEFDTFVQHANDCTDVVQAEFSQLLFPIFAHSYIALIEKHAATARIFFNRFKIFIPECFSEFVYQLSLIEDAMTLRANEHVHILRENKFLVRLSRPTLKHLESIQTRVIGVKNIIAKHICIENADEVSTNRTTIETQMGGILGVTSKSDKRHKMMFSVLKDELMQNIEKRKTKGKDWKDMGKKMQTHCPQADRIPLPPISEHLREERRNWLRDVGKMAIISAESPVSICMYTTVNAPIGVASCDFTDDSSLIAMGLSDSSIVMNAMDPMNKMKKLRDMEFLDKIDIETADNVQSQMFDLQGSTTSVRYTGHGGPVFSVNFSPDRRLLISSAGDRTVRLWSMETQRNAVIYRTPAVAQFCSRGYYFATASADKTAAMWSTDRMHPLRIFADPYGDVGCIDYHPNCNYIAGGSDDRYVRVWDVCSGTRVRIFSGHKASIIAVKFSPCGRYIVSLDAIGNLMIWDLAYQRLVAAEITEQAGTKGSITFSRDGGVFAVSHGNSSIQLYSLDTLIGTVLAAGQNDSYIEPKVNLDGFNIGSYATKETAVIGLHFTRRNLLLGFGCFGQ | soluble
GHMTKLNQESTAPKVLFTGVVDARGERAVLALGGSLAGSAAEASHLVTDRIRRTVKFLCALGRGIPILSLDWLHQSRKAGFFLPPDEYVVTDPEQEKNFGFSLQDALSRARERRLLEGYEIYVTPGVQPPPPQMGEIISCCGGTYLPSMPRSYKPQRVVITCPQDFPHCSIPLRVGLPLLSPEFLLTGVLKQEAKPEAFVLSPLEMSST | soluble
MGSDKIHHHHHHVAPSIRARSAGRDETEFDFMMTDPLALAKRLIALRARIVATFNAGNWEEVGLLSGQSKIITGHDRLLRSLSWHDEDYEGNVLTVLRRISDRDVRALDVIEEYLNEKFPGEEKTEYVSAKPSERKITFAPNVFQIPDGSVESDLVAVMMPFSPEFKPVYEAMKRACTANSLRSMRVDDMWQDSVIVQDIFSLIFRAQVVVVDFSRKNPNVMYETGIAHTLGKHVVPIAQTIDDVPFDMRHHRTLLYLANGEGLQQLERELAAKLKQFGGGGPPIINLGFSR | not soluble
MSLKSVASGKELAGLRVMVIDDSKTIRRTAETLLKREGCEVVTAIDGFEALAKIADQKSQIIFVDIMMPRLDGYQTCALIKNNNLFKSTPVIMLSSKDGLFDKARGRVVGSEQYLTKPFTREELLSAIRTYVNPLKLAEGHHHHHH | not soluble
SASKIKGRPPKQPKVTPALPSNDSQQLHENNPGNNLALETCGESSSSHGTGGPKPGPSKKTLNERKRKYGVSVNKTVQNIEWNVDHFLKVQHERRQELYKDYSHQFLTLVMMWNIDVDQIKKQAGKLSDILDEQQKLFQQFQSIHMQKIEEFKELCDRHLKNLQAIKCCRRKAIIEEARKLMDYLEKRVTEETVHVNKQEAKDGVQSSLLSLLIS | soluble
MTEKINIQEVLVVEGKDDTANLRRFYEVDTYETRGSAITEEDLERINRLNDLRGVIVLTDPDYNGERIRKLIMAAVPTARHAFLNRNEAVPSSKSKGRSLGVEHANFEDLQKALAHVTQQYDDESYFDIRQTDLIRLGLLMASDSRKRREYLGEKLRIGYANGKQLLKRLELFGITLAEVEEVMETYEE | not soluble
MGSDKIHHHHHHMNILITGASGFIGRQLVERLAPHHQLTLLTRSVQQTQRILGNQHHYLESLDALSDLNHIDAIVNLAGEPIVAKRWSKNQKQRICDSRWDITARLTQLIQQSSNPPEIMVSGSAVGYYGRHDDKLLDESSGAHVEFSHDICRKWEQEALNANTEHTRVCIIRIGIVLGKGGALEKMLPPFKLGLGGPIGHGRQGMSWIHVQDLISLIDFLLSQEHCKGVFNATAPNPVSNAVFTKALGKALNRPALITTPPLALRLAMGEMSELLTEGQFVYPKRALEAGFQFQFSDLDNALTDVLAK | not soluble
MKLHEAKLLLNDPTFSIDSITYQELEMDSDYVDVHEDISYSKDNVDLHSHTFFEILFCQSGSLQYMVGNTRYQLVKNSIVCIPPGVSHCPLYLEQLSEPYRRTVMWISNKIYHQYMNLLNNDPIEKSSCLLPQNVFLLSGNILYQVEELYEKMLNIPPDFSGAELYKIGLSAQIVTLFHQFLNSHEINPLKPEKTILLDEIIHFIENHLSEELSAKRIAAHFLVSESSINQLFSKQISLSLYRYITQRRLIEAKNLISSQTPLKKLPELCGFSDYSVFYKAFTKQYGISPKEYKNRIFKMQQ | soluble
MGHHHHHHSHMVLLHVKRGDESQFLLQAPGSTELEELTVQVARVYNGRLKVQRLCSEMEELAEHGIFLPPNMQGLTDDQIEELKLKDEWGEKCVPSGGAVFKKDDIGRRNGQAPNEKMKQVLKKTIEEAKAIISKKQVEAGVCVTMEMVKDALDQLRGAVMIVYPMGLPPYDPIRMEFENKEDLSGTQAGLNVIKEAEAQLWWAAKELRRTKKLSDYVGKNEKTKIIAKIQQRGQGAPAREPIISSEEQKQLMLYYHRRQEELKRLEENDDDAYLNSPWADNTALKRHFHGVKDIKWRPR | not soluble
EVDPFVELHVRAMGLAEVYGKMNGYMPMNYEYNVGRVETGIAKALGIKPSRDYEGIVAESQKLAAKAPPRPPVLCPGCPHSASFYAIRRVVDELGDAALPS | not soluble
MSLTETCDRFALIGAGPMGLAMAKVMLEQGIAFDGFELHSDVGGLWDIDGPRSTMYESAHLISSKRMTEFTDFPMEEAVAEYPSHRELKRYFHAFAARYGLRDHYRFGAEVLRCEPLGEPGAGWRVIWRDAEGEHTETYAGVMIANGTLSEPNMPTFQGRFDGELIHSSAYRHPSQFDGKRVLIVGAGNSGCDIAVDAIHHGALCDLSMRRGYYFVPKYVFGKPADTLGGMIKLPMWLKRRVDGMILKWFVGDPQKYGFPKPDYQLYESHPVVNSLVLYHAGHGDLRIRPDIDRFDGRRVIFADGSSEEYDMILAATGYKLFYPFIDRDLLNWQGDAPHLYLNALHPERDDLFVLGMIEASGLGWQGRHEQAEMVARYITGLRRGGAAAAELKAAKSAGFERATGGMNYLKLARMAYYVDKATYRGAVTGWIDRLKRAQSEGHHHHHH | soluble
MHHHHHHSSGRENLYFQGTIDDLFIFKRKLGSGAFGDVHLVEERSSGLERVIKTINKDRSQVPMEQIEAEIEVLKSLDHPNIIKIFEVFEDYHNMYIVMETCEGGELLERIVSAQARGKALSEGYVAELMKQMMNALAYFHSQHVVHKDLKPENILFQDTSPHSPIKIIDFGLAELFKSDEHSTNAAGTALYMAPEVFKRDVTFKCDIWSAGVVMYFLLTGCLPFTGTSLEEVQQKATYKEPNYAVECRPLTPQAVDLLKQMLTKDPERRPSAAQVLHHEWFKQA | soluble
MAMAALKDLVEFQLKNAQELVTVLEAEKVAITSRISVDIESIAKQKLTLVNQLQQTDQRIAKHPHVASLTEDTYLNELVSQIRSIIMDCQQANLINGDALARAQLSFNKLNNLMQQSHGKIGMTYSATGKTHTISTLGTNIKA | not soluble
MEVEIEDIDEVATLTETDIVEIQTKLIEDLQEMVVKDKEKHEKLLKLGEHVLDEQTRLRTRLSEEFGDFLNRSKRSLTRNFETADGNVYSFEKNLRELLHLYITVHNRVKQDEKEVAKQDEFLNQIDRNEMELKDLRDNIRSLRSELTVDVGPVSSVTSKTSGIEANFIVKPYKPLETELATQIVRVNRELEILKMQLPNCDHFPNLMNPVQKLGEKVTGMVMKDLPAKKLQDFLDTLPPMKRD | not soluble
MNYFFCADESRQVNEDPIGSGCRRQCYVLIECPPPWMANEFDSKAVPANLRSLENEFYAVEPDGILLFIYSEELRQNYLTRILIFRPMMGYSGGYIKQEIHVSSLEDVAIVLKDWLAGKDIADTDINPHTRDILVCTHGTHDKCCAKYGIPFYRQAKNIVADLAVESVRIWQSSHFSGHRFAPTILDLPQGRYYGKLDCQSFTNILTYTGDINCLKSIYRGWGILPFPAQVMEGELIFLHGWQWFNYKVSCCFIEQSEDECFNRIEISAILPDGDIKTYQADVVEDESKSIYLIGDCHGIEPELIPKYSVNNLIQII | not soluble
MKVRAQVPTVKNATNFNMVADSKTAVGSTLENLKAAIAGETGAHAKYTAFAKAAREQGYEQIARLFEATAAAELIHIGLEYALVAEMEPGYEKPTVAAPSAYSCDLNLISGANGEIYETSDMYPAFIRKAQEEGNSKAVHVFTRAKLAESVHAERYLAAYNDIDAPDDDKFHLCPICGYIHKGEDFEKCPICFRPKDTFTAY | soluble
MKGKNNMSRIIVVTSGKGGVGKTTSSAAIASGLALRGKKTAVIDFDIGLRNLDLIMGCERRVVYDFVNVINGEATLNQALIKDKRNENLFILPASQTRDKDALTKDGVQRVLNDLKEMGFDFIICDSPAGIEQGALMALYYADEAIVTTNPEVSSVRDSDRILGILDSKSMRAEQGQAPIKQHLLLTRYNPARVTQGEMLSVQDVEEILHVPLLGVIPESQAVLNASNKGVPVIFDDQSDAGQAYQDTVARLLGEQVEFRFLTEAKKGIFKRLFGG | not soluble
MIYLFTGNMGTGKTSRVVSMILNNEDGLFKMKLEDGTEVDRPLYFCHIDGLDKRQFKAHELTEEQIMSAPLRDVIPEGAVLIVDEAHYTYPVRAAGRPVPPYIQELTELRHHGHTVILMTQHPSQLDIFVRNLVSKHVHLERKAIGMKQYYWYKCVTSLDNPAGVSGVEVASWKPPKEAFKYYKSASQHQ | not soluble

— the DeepSol protein solubility set
